From patent US20130252983A1 (CORNELL UNIVERSITY, published 2013)

Target: mTOR (mammalian target of rapamycin) (UniProt Q9JLN9 1-2549)
Experiment: co-immunoprecipitation of GAC proteins from Dbl-transformed cell lysates, Western blot with mTOR antibody
Text: To test this, Dbl-transformed cells were transiently transfected with wild-type GAC, GACΔC and GAC (S103A), and then these proteins were isolated from cell lysates by immunoprecipitation.

B1: GAC (S103A), phospho-defective mutant of mouse glutaminase C (enzyme)
chain: HPWWGGGGRAKGPGAGGLSSSPSEILQELGKGGTPPQQQQQQQQQPGAAPPAAPGPKDSPGETDAFGNSEGKEMVAAGDNKIKQGLLPSLEDLLFYTIAEGQEKIPVHKFITALKSTGLRTSDPRLKECMDMLRLTLQTTSDGVMLDKDLFKKCVQSNIVLLTQAFRRKFVIPDFMSFTSHIDELYESAKKQSGGKVADYIPQLAKFSPDLWGVSVCTVDGQRHSIGDTKVPFCLQSCVKPLKYAIAVNDLGTEYVHRYVGKEPSGLRFNKLFLNEDDKPHNPMVNAGAIVVTSLIKQGVNNAEKFDYVMQFLNKMAGNEYVGFSNATFQSERESGDRNFAIGYYLKEKKCFPEGTDMVGILDFYFQLCSIEVTCESASVMAATLANGGFCPITGERVLSPEAVRNTLSLMHSCGMYDFSGQFAFHVGLPAKSGVAGGILLVVPNVMGMMCWSPPLDKMGNSVKGIHFCHDLVSLCNFHNYDNLRHFAKKLDPRREGGDQRHSFGPLDYESLQQELALKDTVWKKVSPESSDDTSTTVVYRMESLGERS
notes: Transiently expressed in Dbl-transformed NIH 3T3 cells and isolated by immunoprecipitation; not shown: V5 tag
B1: no binding.
